± gives the standard deviation of the averaged measurements.
Tested on: Saccharomyces cerevisiae
Assay: protein stability index of tFT-peptide fusion (C-terminal peptide) (PSI (0-1 scale)); higher = more stable (slower turnover)
Conditions: genetic background: wild type; temperature: 30 C
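Note: PSI is a weighted mean of sequencing reads over stability bins, variants kept only with over 10 reads, mCherry proximal and sfGFP distal, peptide attached via GGGS linker.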

In order of falling protein stability index:
1. WFVCSGVYGSVM  0.692 ± 0.013
2. VFCLPISAPPLH  0.685 ± 0.023
3. WLALSFFSFFFC  0.588 ± 0.19
4. VPGPSPPRFTQR  0.559 ± 0.1
5. WCCCVSGFVWWM  0.526 ± 0.11
6. VYGSLPVVVCRI  0.525 ± 0.065
7. VSSFLLPFCLLF  0.51 ± 0.1
8. VVGFVFSCWWSW  0.5003 ± 0.0031
9. WFVFVFCSPRSS  0.5 ± 0.029
10. VYVLVFNMENIS  0.4891 ± 0.0047
11. VYCQRFMLLFTP  0.4872 ± 0.0007
12. VHHAFLPYTLVR  0.485 ± 0.01
13. VVTLHISLFYPG  0.479 ± 0.023
14. WNSQGVFILAKC  0.4783 ± 0.0023
15. VFFMFVFFPFPG  0.471 ± 0.026
16. VVGVLLLYLNPF  0.4677 ± 0.0038
17. VSGVLRSMVRLQ  0.453 ± 0.011
18. VSDLYLSLVRVV  0.45 ± 0.078
19. VPWSKIAARLII  0.446 ± 0.068
20. VLPCSLVPLRLH  0.445 ± 0.014
21. VYLVLRCGSVLV  0.443 ± 0.054
22. WRAFVFYHHFLD  0.441 ± 0.015
23. VVLWWWVVARDL  0.44 ± 0.028
24. VFGSRCLLTVVV  0.438 ± 0.043
25. WEPILLELELCV  0.4357 ± 0.0036
26. WFLLILFSAFAV  0.436 ± 0.0045
27. VGAYSVVYVVFS  0.433 ± 0.036
28. VDFCLLFLLLLV  0.432 ± 0.025
29. VYVSRTRPFSLY  0.428 ± 0.031
30. WILPASFCVVFL  0.427 ± 0.027
31. VIAFFSVLKRYV  0.421 ± 0.016
32. VVWLFGVSWCWL  0.419 ± 0.0056
33. VMLIRVSRGIKC  0.41 ± 0.0097
34. VFLCFSWHFFLF  0.405 ± 0.012
35. VLPLRCSWAAQG  0.39 ± 0.035
36. WHFMVFFCFCVD  0.381 ± 0.024
37. VFIPFGFCLCFV  0.373 ± 0.0028
38. VTLLCRFFMLVF  0.369 ± 0.021
39. VFILGFLCLLFF  0.355 ± 0.036
40. VVRSIVVYTCVF  0.352 ± 0.021
41. VSWSVSALIYLK  0.35 ± 0.0075
42. VFVFTFSLSFYC  0.3465 ± 0.0031
43. VFWVLVSFLFYV  0.346 ± 0.023
44. VHNIDLFVVCYI  0.346 ± 0.0067
45. WAIVVLVCFLRL  0.343 ± 0.017
46. VVRVIWCQFSCF  0.334 ± 0.0057
47. VFFIFFFAFLFF  0.329 ± 0.051
48. WGVVMVCVVFGL  0.3249 ± 0.0027
49. VYIVLLLLFLRP  0.308 ± 0.031
50. VCVYLVSLPYLA  0.303 ± 0.035
51. VGVYVWRGVLWA  0.296 ± 0.044
52. WLFTSVTVFTFL  0.296 ± 0.045
53. VFLVGFRVTLDS  0.295 ± 0.0062
54. VRVWLLACASKG  0.281 ± 0.014
55. VLFFLVTSSVYF  0.269 ± 0.04
56. VFVRDFLVSIVV  0.257 ± 0.014
57. VKSAVLLFFLVT  0.257 ± 0.0044
58. WFSVIMLCYILP  0.253 ± 0.004
59. VGVLWALIVGVR  0.251 ± 0.035
60. VWACWCGWVLLM  0.235 ± 0.072
61. VFWVVFRALVGD  0.233 ± 0.022
62. VVRLRVWRLLKV  0.225 ± 0.023
63. WLSISNLVIACR  0.217 ± 0.013
64. VFCMVLPFVLLT  0.214 ± 0.035
65. VWLFCLSRLYLL  0.206 ± 0.052
66. VGAGVFAWLWVA  0.199 ± 0.024
67. VFFCVLRVFFSA  0.193 ± 0.017
68. VMLVISRLLLLF  0.174 ± 0.021
69. VPVWHTVKLYCF  0.159 ± 0.061
70. WACAWRGMVKVG  0.156 ± 0.018
71. WCGSWGVWMRLG  0.122 ± 0.031
72. WGFSVRFVLSVF  0.12 ± 0.017
73. VFGWWSVVLRVA  0.109 ± 0.029
74. WLFRASSFNWVI  0.105 ± 0.036
75. VSRAVCLWRRLL  0.0882 ± 0.088
76. VVVRARVFFHIF  0.0561 ± 0.048
77. VFSFWVLCEVSV  0.04525 ± 0.0004
78. VRMMYSVQVWCG  0.0363 ± 0.036

Tested on: Saccharomyces cerevisiae
Assay: as above
Conditions: genetic background: cdc34-1; temperature: 37 C
Description: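 MPS profiling in S. cerevisiae of the tFT-X12 degron library: putative degron peptides plus stable controls, 12 aa, fused to the C-terminus of a sfGFP-mCherry timer. Cells are FACS-sorted into 8 mCherry/sfGFP bins and deep-sequenced. PSI runs from 0 (unstable) to 1 (stable). Backgrounds are wild type, das1Δ and doa10Δ at 30 °C, and wild type, das1Δ, cdc34-1 and cdc53-1 at 37 °C; 2-3 technical replicates each.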

In order of rising protein stability index:
1. WLSISNLVIACR  0.0277 ± 0.009
2. VFSFWVLCEVSV  0.0333 ± 0.0097
3. VRMMYSVQVWCG  0.0466 ± 0.011
4. VFVRDFLVSIVV  0.0474 ± 0.014
5. WGFSVRFVLSVF  0.0576 ± 0.004
6. VFGWWSVVLRVA  0.0612 ± 0.0012
7. VFFCVLRVFFSA  0.0798 ± 0.024
8. WGVVMVCVVFGL  0.116 ± 0.019
9. VLFFLVTSSVYF  0.124 ± 0.036
10. VFCMVLPFVLLT  0.126 ± 0.018
11. VGVLWALIVGVR  0.167 ± 0.011
12. VSWSVSALIYLK  0.169 ± 0.017
13. VFWVVFRALVGD  0.191 ± 0.015
14. WACAWRGMVKVG  0.202 ± 0.021
15. WFSVIMLCYILP  0.204 ± 0.023
16. WLFTSVTVFTFL  0.21366 ± 0.00013
17. VFVFTFSLSFYC  0.223 ± 0.031
18. VFLVGFRVTLDS  0.267 ± 0.035
19. VVRLRVWRLLKV  0.267 ± 0.022
20. VGVYVWRGVLWA  0.277 ± 0.025
21. WAIVVLVCFLRL  0.283 ± 0.011
22. VVVRARVFFHIF  0.285 ± 0.012
23. VFFIFFFAFLFF  0.294 ± 0.035
24. WHFMVFFCFCVD  0.295 ± 0.04
25. WCGSWGVWMRLG  0.296 ± 0.08
26. VWLFCLSRLYLL  0.298 ± 0.039
27. VWACWCGWVLLM  0.319 ± 0.038
28. VVRSIVVYTCVF  0.3284 ± 0.0017
29. VRVWLLACASKG  0.3332 ± 0.00082
30. VFWVLVSFLFYV  0.339 ± 0.011
31. VPVWHTVKLYCF  0.342 ± 0.0081
32. VYIVLLLLFLRP  0.356 ± 0.0046
33. VKSAVLLFFLVT  0.357 ± 0.0084
34. VMLIRVSRGIKC  0.359 ± 0.044
35. VFILGFLCLLFF  0.403 ± 0.03
36. VFIPFGFCLCFV  0.408 ± 0.012
37. VVLWWWVVARDL  0.414 ± 0.019
38. VDFCLLFLLLLV  0.427 ± 0.041
39. VVWLFGVSWCWL  0.429 ± 0.018
40. VVGVLLLYLNPF  0.431 ± 0.0048
41. VHNIDLFVVCYI  0.433 ± 0.025
42. VVGFVFSCWWSW  0.433 ± 0.031
43. WFLLILFSAFAV  0.433 ± 0.021
44. VVTLHISLFYPG  0.447 ± 0.033
45. VCVYLVSLPYLA  0.451 ± 0.015
46. VFLCFSWHFFLF  0.4543 ± 0.0039
47. VTLLCRFFMLVF  0.454 ± 0.01
48. VMLVISRLLLLF  0.465 ± 0.058
49. VFGSRCLLTVVV  0.472 ± 0.0098
50. VSRAVCLWRRLL  0.479 ± 0.006
51. VGAYSVVYVVFS  0.481 ± 0.026
52. VVRVIWCQFSCF  0.494 ± 0.036
53. WEPILLELELCV  0.498 ± 0.035
54. VHHAFLPYTLVR  0.502 ± 0.021
55. WILPASFCVVFL  0.502 ± 0.012
56. VFFMFVFFPFPG  0.523 ± 0.084
57. VYCQRFMLLFTP  0.527 ± 0.059
58. VGAGVFAWLWVA  0.533 ± 0.02
59. VYGSLPVVVCRI  0.534 ± 0.059
60. WLFRASSFNWVI  0.537 ± 0.017
61. WNSQGVFILAKC  0.54 ± 0.035
62. WFVFVFCSPRSS  0.547 ± 0.048
63. VYVLVFNMENIS  0.5603 ± 0.0009
64. WCCCVSGFVWWM  0.563 ± 0.012
65. VYLVLRCGSVLV  0.565 ± 0.015
66. VSDLYLSLVRVV  0.59 ± 0.032
67. VIAFFSVLKRYV  0.641 ± 0.0088
68. VSGVLRSMVRLQ  0.641 ± 0.044
69. VSSFLLPFCLLF  0.65 ± 0.025
70. WLALSFFSFFFC  0.654 ± 0.014
71. VPWSKIAARLII  0.6593 ± 0.0029
72. VLPCSLVPLRLH  0.66 ± 0.015
73. WRAFVFYHHFLD  0.665 ± 0.042
74. WFVCSGVYGSVM  0.676 ± 0.0086
75. VFCLPISAPPLH  0.679 ± 0.0083
76. VYVSRTRPFSLY  0.682 ± 0.052
77. VLPLRCSWAAQG  0.693 ± 0.007
78. VPGPSPPRFTQR  0.7134 ± 0.0016
